What was measured:
Spf1p = target: T1, Spf1p (Saccharomyces cerevisiae, UniProt P39986); assay: ATPase assay, phosphate release (molybdate colorimetric); type: biochemical
T1 construct: gene SPF1; full length with C-terminal FLAG-RGS10His tag; expressed in spf1-deleted yeast (BY4741 background), purified, re-lipidated in mixed yeast polar lipid/detergent micelles; persistent dimer seen on SDS-PAGE
T1 sequence (P39986 1-1215): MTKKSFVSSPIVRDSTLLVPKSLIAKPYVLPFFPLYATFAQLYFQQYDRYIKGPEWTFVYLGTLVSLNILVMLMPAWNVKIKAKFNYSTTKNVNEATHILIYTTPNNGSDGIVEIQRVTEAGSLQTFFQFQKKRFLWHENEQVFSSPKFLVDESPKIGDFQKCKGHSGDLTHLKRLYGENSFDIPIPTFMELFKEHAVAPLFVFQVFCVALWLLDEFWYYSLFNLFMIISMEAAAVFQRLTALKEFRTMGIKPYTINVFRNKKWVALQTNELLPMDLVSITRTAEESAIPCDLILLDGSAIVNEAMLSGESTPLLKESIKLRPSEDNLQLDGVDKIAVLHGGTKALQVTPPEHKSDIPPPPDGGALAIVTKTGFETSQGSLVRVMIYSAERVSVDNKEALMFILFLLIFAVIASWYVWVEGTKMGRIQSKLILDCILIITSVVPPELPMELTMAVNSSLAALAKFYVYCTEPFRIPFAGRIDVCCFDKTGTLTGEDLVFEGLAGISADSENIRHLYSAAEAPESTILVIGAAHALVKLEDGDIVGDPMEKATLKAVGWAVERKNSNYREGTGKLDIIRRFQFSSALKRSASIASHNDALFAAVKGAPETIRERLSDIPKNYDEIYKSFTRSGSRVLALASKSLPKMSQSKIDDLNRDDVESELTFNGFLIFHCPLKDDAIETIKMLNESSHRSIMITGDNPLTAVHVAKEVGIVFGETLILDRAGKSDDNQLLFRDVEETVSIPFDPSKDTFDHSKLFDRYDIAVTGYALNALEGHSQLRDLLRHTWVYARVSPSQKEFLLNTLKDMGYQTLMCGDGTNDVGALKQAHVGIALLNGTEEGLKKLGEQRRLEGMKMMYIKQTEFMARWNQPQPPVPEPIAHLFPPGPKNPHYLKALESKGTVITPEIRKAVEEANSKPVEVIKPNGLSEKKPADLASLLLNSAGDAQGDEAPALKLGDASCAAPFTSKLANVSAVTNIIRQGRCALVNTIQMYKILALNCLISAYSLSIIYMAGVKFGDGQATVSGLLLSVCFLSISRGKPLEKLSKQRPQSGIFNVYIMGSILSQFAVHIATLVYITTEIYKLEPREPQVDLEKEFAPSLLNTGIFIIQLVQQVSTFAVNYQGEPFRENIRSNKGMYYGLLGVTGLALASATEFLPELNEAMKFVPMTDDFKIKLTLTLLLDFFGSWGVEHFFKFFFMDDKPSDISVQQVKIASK
Description: ATPase assay, phosphate release (molybdate colorimetric) on Spf1p | Vanadate sensitivity of Spf1p in mixed YPL/OG micelles

[1] = substrate: Nc1ncnc2c1ncn2[C@@H]1O[C@H](COP(=O)(O)OP(=O)(O)OP(=O)(O)O)[C@@H](O)[C@H]1O; assay: as above; type: biochemical, Saccharomyces cerevisiae; details: YPL/OG micelles (0.35% w/w OG); Mg2+; Michaelis-Menten fit
Description: ATPase assay, phosphate release (molybdate colorimetric) on Spf1p | ATP affinity of Spf1p in YPL/OG micelles

[2] = target: the molecule itself; assay: SDS-PAGE of the purified protein (band at twice the expected size); purified fractions run on SDS-PAGE gels, strongly denaturing conditions; bands of the full-length protein identified by mass spectrometry (S1 Fig)

Molecule: [O]=[V]([OH])([OH])[OH] [vanadate]
- Ki (Spf1p): 10.3 ± 0.747 µM

B1: Saccharomyces cerevisiae P5A ATPase Spf1p (enzyme, UniProt P39986 1-1215, looked up)
chain: MTKKSFVSSPIVRDSTLLVPKSLIAKPYVLPFFPLYATFAQLYFQQYDRYIKGPEWTFVYLGTLVSLNILVMLMPAWNVKIKAKFNYSTTKNVNEATHILIYTTPNNGSDGIVEIQRVTEAGSLQTFFQFQKKRFLWHENEQVFSSPKFLVDESPKIGDFQKCKGHSGDLTHLKRLYGENSFDIPIPTFMELFKEHAVAPLFVFQVFCVALWLLDEFWYYSLFNLFMIISMEAAAVFQRLTALKEFRTMGIKPYTINVFRNKKWVALQTNELLPMDLVSITRTAEESAIPCDLILLDGSAIVNEAMLSGESTPLLKESIKLRPSEDNLQLDGVDKIAVLHGGTKALQVTPPEHKSDIPPPPDGGALAIVTKTGFETSQGSLVRVMIYSAERVSVDNKEALMFILFLLIFAVIASWYVWVEGTKMGRIQSKLILDCILIITSVVPPELPMELTMAVNSSLAALAKFYVYCTEPFRIPFAGRIDVCCFDKTGTLTGEDLVFEGLAGISADSENIRHLYSAAEAPESTILVIGAAHALVKLEDGDIVGDPMEKATLKAVGWAVERKNSNYREGTGKLDIIRRFQFSSALKRSASIASHNDALFAAVKGAPETIRERLSDIPKNYDEIYKSFTRSGSRVLALASKSLPKMSQSKIDDLNRDDVESELTFNGFLIFHCPLKDDAIETIKMLNESSHRSIMITGDNPLTAVHVAKEVGIVFGETLILDRAGKSDDNQLLFRDVEETVSIPFDPSKDTFDHSKLFDRYDIAVTGYALNALEGHSQLRDLLRHTWVYARVSPSQKEFLLNTLKDMGYQTLMCGDGTNDVGALKQAHVGIALLNGTEEGLKKLGEQRRLEGMKMMYIKQTEFMARWNQPQPPVPEPIAHLFPPGPKNPHYLKALESKGTVITPEIRKAVEEANSKPVEVIKPNGLSEKKPADLASLLLNSAGDAQGDEAPALKLGDASCAAPFTSKLANVSAVTNIIRQGRCALVNTIQMYKILALNCLISAYSLSIIYMAGVKFGDGQATVSGLLLSVCFLSISRGKPLEKLSKQRPQSGIFNVYIMGSILSQFAVHIATLVYITTEIYKLEPREPQVDLEKEFAPSLLNTGIFIIQLVQQVSTFAVNYQGEPFRENIRSNKGMYYGLLGVTGLALASATEFLPELNEAMKFVPMTDDFKIKLTLTLLLDFFGSWGVEHFFKFFFMDDKPSDISVQQVKIASK
notes: Spf1p, P5A-type ATPase of the endoplasmic reticulum, Saccharomyces cerevisiae, full length; The abstract speaks of a purified 'functional tagged version'; removal of the tag is not mentioned; also called full length Spf1p; full-length expression construct (Spf1p); not shown: FLAG, C-terminal, kept; RGS10His, C-terminal, kept
- Km [1]: 0.1332 ± 0.0189 mM
- binding result [2]: binds

From PMC9584430, “ATP hydrolytic activity of purified Spf1p correlate with micellar lipid fluidity and is dependent on conserved residues in transmembrane helix M1” (PLoS ONE, 2022)
